Three molecules from patent US20160222114A1 (published 2016) can be followed below.

What is called koff is a measure of how fast the partners let go of each other. A higher koff goes with fast dissociation. One may read the kon as a measure of how fast the partners come together. Read a high kon as fast association. What is called Kd is the free concentration of one partner at which half of the binding sites on the other are occupied at equilibrium, for simple one-to-one binding. High values mean weaker binding, low ones tighter binding. Broadly, the EC50 is the concentration needed to bring the measured effect to its halfway point. A lower EC50 goes with an effect from little substance.

Experiment [1] has as its target human BTLA, endogenous protein of peripheral blood B and T cells of healthy donors (human, UniProt Q7Z6A9 31-289). The experiment is described as follows: cell-based or functional assay.
Experiment [2] addresses T1, human BTLA (analyte of the BIAcore measurements) (human, UniProt Q7Z6A9 31-156, limits assumed).
T1 sequence: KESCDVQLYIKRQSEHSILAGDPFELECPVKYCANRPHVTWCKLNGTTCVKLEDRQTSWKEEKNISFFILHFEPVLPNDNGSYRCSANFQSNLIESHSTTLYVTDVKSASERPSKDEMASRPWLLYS
Briefly: BIAcore. Background: SPR reads the build-up and loss of mass on a sensor chip optically.

For experiment [3], the target named is T1, human BTLA (analyte of the BIAcore …). Briefly: BIAcore surface plasmon resonance.
Experiment [4] addresses T2, cynomolgus BTLA expressed on CHO cells (cynomolgus, UniProt A0A2K5W7M7 31-289).
T2 construct: whole, on cells; also called cyno BTLA; CHO cells expressing cynomolgus BTLA
T2 sequence: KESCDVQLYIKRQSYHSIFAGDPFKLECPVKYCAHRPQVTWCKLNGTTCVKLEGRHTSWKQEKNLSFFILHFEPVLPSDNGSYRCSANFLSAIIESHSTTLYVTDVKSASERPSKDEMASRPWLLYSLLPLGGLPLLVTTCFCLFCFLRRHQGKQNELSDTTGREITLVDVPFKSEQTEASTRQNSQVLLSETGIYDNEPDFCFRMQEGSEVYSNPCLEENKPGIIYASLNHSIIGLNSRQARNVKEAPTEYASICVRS
Briefly: flow cytometry on CHO cells expressing cynomolgus BTLA, PE-anti-huFc detection. In general terms: A flow cytometer gives signals particle by particle.

Experiment [5] deals with T1, human BTLA (analyte of the BIAcore …). The experiment is described as follows: BIAcore, antibody captured on an anti-CH1 chip. An excerpt: For BIAcore, the test antibodies were captured on an anti-CH1 chip.

B1: hu Mab8D5 Fab' fragment (Fab, V domains shown)
VH: EVQLVESGGGLVQPGGSLRLSCAASGFTISSYDMHWVRQATGKGLEWVSVIGPAGDTYYPGSVKGRFTISRENAKNSLYLQMNSLRAGDTAVYYCAREGMAAHNYYGMDVWGQGTTVTVSS
VL: not shown
As to B1, the “relative potency of the Fab′ against the full Mab” value in experiment [1] was about 10 fold less.

B2: hu Mab8D5 (IgG4 version of 8D5, fully human monoclonal agonist anti-BTLA antibody) (antibody, V domains shown)
VH: B1 VH
VL: not shown
notes: Rest: human IgG4/kappa; Re-expressed in CHO-S cells; also called hu Mab8D5 G4; 8D5 (G4) agonist
With B2, in experiment [2], the off-rate constant (koff) came to 0.000137 s⁻¹ and the association rate constant (kon) is 45800 M⁻¹ s⁻¹. Also, the equilibrium dissociation constant (Kd) in experiment [3] was about 2 nM. The molecule further registered an EC50 in experiment [4] of about 12 nM. In experiment [5], this molecule registered an off-rate constant (koff) of 0.00019 s⁻¹ and a kon of 79000 M⁻¹ s⁻¹.

B3: hu Mab8D5 G1 (IgG1 version of 8D5) (antibody, V domains shown)
VH: B1 VH
VL: not shown
notes: same variable regions as hu Mab8D5; also called IgG1 version of hu Mab8D5; 8D5 IgG1 Mab
In experiment [4], B3 yielded an EC50 of about 12 nM.
